We go through 1 molecule from article PMC6495647.

The assay addresses MucA’ protein (plasmid pKM101 (host species not stated)). Put plainly: SPR; BIAcore 2000, kinetic analysis at lower ligand densities (577 RU of immobilized β, 1036 RU of immobilized MucA’ on CM5); MucB in the mobile phase; BSA reference cell; apparent constants; data not shown. For orientation: In SPR one partner is held on a chip, and binding of the other changes the refractive index at the surface.

B1: MucB protein (enzyme)
chain: MFALIDVNGMYASCEQAFRPDLANRAVAVLSNNDGNIVARNYLAKKAGLKMGDPYFKVRPIIERHNIAIFSSNYTLYASMSARFAAVVESLASHVEQYSIDELFVDCKGITAAMSLDAFGRQLREEVRRHTTLVCGVGIARTKTLAKLCNHAAKTWPATGGVVALDDGARLKKLMSILPVAEVWGVGHRTEKALATMGIKTVLDLARADTRLIRKTFGVVLERTVRELRGEACFSLEENPPAKQQIVVSRSFGQRVETLTDMQQAVTGFAARAAEKLRNERQYCRVISVFIRTSPYSVRDTQYANQATEKLTVATQDSRTIIQAAQALARIWREDIAYAKAGVMLADFSGKEAQLDLFDSATPSAGSEALMAVLDGINRRGKNQLFFAGQGIDNSFAMRRQMLSPDYTTDWRSIPIATIK
Broadly, the koff is the rate constant with which the complex falls apart. In general, kon refers to a measure of how fast the partners come together. Regarding B1, the Kd stood at 1.99 nM, the amount bound (RU) was 355 RU, the koff was determined as 0.000127 s⁻¹ and the kon stood at 63900 M⁻¹ s⁻¹.
